The values below come from paper PMC3998870 (Nature, 2014).

To fix the notation:
T1: VirB4/TrwK with a C-terminal StrepII tag (Escherichia coli plasmid R388, UniProt O50330 1-823)
T1 sequence (looked up): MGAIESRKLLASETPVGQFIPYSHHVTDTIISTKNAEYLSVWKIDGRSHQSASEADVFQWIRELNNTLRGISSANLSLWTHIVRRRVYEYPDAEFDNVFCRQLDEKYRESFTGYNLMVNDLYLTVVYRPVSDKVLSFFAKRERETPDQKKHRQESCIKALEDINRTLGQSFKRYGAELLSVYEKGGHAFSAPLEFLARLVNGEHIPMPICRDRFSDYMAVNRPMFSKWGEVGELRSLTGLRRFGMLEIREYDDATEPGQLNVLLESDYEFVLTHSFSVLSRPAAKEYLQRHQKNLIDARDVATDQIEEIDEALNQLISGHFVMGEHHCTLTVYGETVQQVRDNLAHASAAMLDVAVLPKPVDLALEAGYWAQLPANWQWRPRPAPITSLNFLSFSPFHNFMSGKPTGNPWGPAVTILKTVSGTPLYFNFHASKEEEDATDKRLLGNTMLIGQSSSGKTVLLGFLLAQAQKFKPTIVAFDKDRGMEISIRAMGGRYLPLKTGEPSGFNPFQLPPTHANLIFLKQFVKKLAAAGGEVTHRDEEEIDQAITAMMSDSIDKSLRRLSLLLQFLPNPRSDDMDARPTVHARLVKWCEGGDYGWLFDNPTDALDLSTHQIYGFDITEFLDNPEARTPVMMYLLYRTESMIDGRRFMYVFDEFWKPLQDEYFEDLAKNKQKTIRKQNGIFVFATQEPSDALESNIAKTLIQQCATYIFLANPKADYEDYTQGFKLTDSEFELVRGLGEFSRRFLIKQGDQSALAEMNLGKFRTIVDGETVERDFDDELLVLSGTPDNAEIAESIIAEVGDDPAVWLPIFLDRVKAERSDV

B1: VirB10/TrwE with a C-terminal StrepII tag (natural protein, Escherichia coli plasmid R388, UniProt O50337 1-395, looked up)
chain: MFGRKKGDVIDAGAELERAEQERIEGEYGASELASERRPHTPGARTLLMVLLCVIAVVLVTLSYKAYKVRGVVEDDDAQPQQVVRQVIPGYTPRPIRPEPENVPEPPQPTTSVPAIQPAPVTQPVRPQPTGPREKTPYELARERMLRSGLTAGSGGGEDLPRPQGGDVPAGGLMGGGGGGGELAEKLQPMRLSGSSAGRLGNRDMLITQGTQLDCVLETRLVTTQPGMTTCHLTRDVYSTSGRVVLLDRGSKVVGFYQGGLRQGQARIFVQWSRIETPSGVVINLDSPGTGPLGEAGLGGWIDRHFWERFGGAIMISLIGDLGDWASRQGSRQGNNSIQFSNTANGVESAAAEALRNSINIPPTLYKNQGERVNILVARDLDFSDVYSLESIPTK
B2: VirB8/TrwG (natural protein, Escherichia coli plasmid R388, UniProt O50335 1-231, looked up)
chain: MSKKQPKPVKAEQLKSYYEESRGLERDLIGEFVKSRKTAWRVATASGLFGLLGMVCGIVGFSQPAPAPLVLRVDNATGAVDVVTTLREHESSYGEVVDTYWLNQYVLNREAYDYNTIQMNYDTTALLSAPAVQQDYYKLFDGSNARDRVLGNKARITVRVRSIQPNGRGQATVRFTTQQHNSNGTVERPQHQIATIGYTYIGAPMRSSDRLLNPLGFQVTSYRADPEILNN
B3: VirB3/TrwM (natural protein, Escherichia coli plasmid R388, UniProt O50329 1-104, looked up)
chain: MKPPQQQHEAFPLFKGATRLPTILGEPMIPLMAMVMGVAVIALTVSIWWWALVPPLWFIMAQITKNDDKAFRIWWLWIDTKFRNRNKGFWGASSYSPANYRKRR
B4: VirB5/TrwJ (natural protein, Escherichia coli plasmid R388, UniProt O50331 23-226, looked up)
chain: QGIPVFDGTRALDFVQQFARMKEQLDTAKDQLAEAQRMYEAVTGGRGLGDLMRNAQLREYLPDDLRTVYDSANGGGYSGISGSINDILRDERLNGSVADMRRSIEERSRTARTTDKAVGCGPTKGHSNASRRLKDEISRTQDQKAIEELQARIAGEQAAIQNETTKLQMIAQLRQAEQALISEQRRERNMPILSSGNQGMPTIQ
B5: VirB4/TrwK (untagged, in the T4SS3-10 complex) (enzyme, Escherichia coli plasmid R388, UniProt O50330 1-823, looked up)
chain: T1 sequence (looked up)

For data set [1], the target named is VirB4/TrwK (untagged, in the T4SS3-10 complex) (Escherichia coli plasmid R388) (UniProt O50330). The experiment in a line: negative stain EM reconstruction.
The target in data set [2] is VirB10/TrwE with a C-terminal StrepII tag (Escherichia coli plasmid R388) (UniProt O50337). The experiment in a line: tandem affinity purification with 125I labelling of tyrosines and SDS-PAGE.
The data set “co-purification” concerns the molecule itself. The experiment in a line: co-purification.
Data set [3] addresses B1. The experiment in a line: tandem affinity purification with 125I labelling of tyrosines and SDS-PAGE.
In data set [4] the target is T1, VirB4/TrwK with a C-terminal StrepII tag. Nature of the data set: SEC. (In gel filtration, larger molecules generally elute earlier.)

In general, stoichiometry N refers to a count of units in the complex or per binding partner. In data set [1], “VirB4/TrwK (untagged, in the T4SS3-10 complex) (from UniProt O50330 1-823) (enzyme)” yielded a stoichiometry N of 6.

The molecule “VirB6/TrwI with an N-terminal His6 tag (natural protein)” returned a copies in the complex, calibrated on 14 copies of VirB10/TrwE in data set [2] of 23.8 copies.

Take B1: in “co-purification”, the “stoichiometry N” value was determined as 14.

Consider B2, for which the “copies in the complex, calibrated on 14 copies of VirB10/TrwE” value (shortened to “copies in the complex … of VirB10/TrwE”) in data set [3] came out at 12.6 copies.

B3: the “stoichiometry N” value in data set [4] was found to be 1.

In the case of B4, in data set [3], the “copies in the complex … of VirB10/TrwE” value is 11.9 copies.

As for B5, the “copies in the complex … of VirB10/TrwE” value in data set [3] was 11.5 copies.
